Test results: US20160208018A1 (JUNO THERAPEUTICS, published 2016)
Where a chain is given by its changes, count along the chain named. Names may count otherwise. Where two headings read alike, the source gives them in different places.

B1: CAR containing Clone V353 VH-only antigen-binding domain (other)
chain: QVTLKESGGGLVKPGGSLRLSCAASGFTFSNAWMSWVRQAPGKGLEWVGRIKSKTDGGTTDYAAPVKGRFTISRDDSKNTLYLQMNSLKTEDTAVYYCARDFGRWGYYFDYWSQGTLVTVSS
notes: Chimeric antigen receptor expressed on primary human CD8+ T cells; tEGFR marker is split off by T2A; also called V353 CAR; not shown: Ig-derived hinge only spacer, human CD28-derived transmembrane domain, human 4-1BB-derived intracellular signaling domai
B2: Clone V128 (VHH)
VHH: B1 chain with Q1E, T3Q, K5L, L11V, K13Q, S30D, N31T, A32F, G106S
notes: human VH-only single-domain antibody, no VL
B3: Clone V181 (VHH)
VHH: QITLKESGGGLVKPGRSLRLSCTASGFTFGDYAMSWFRQAPGKGLEWVGFIRSKAYGGTTEYAASVKGRFTISRDDSKSIAYLQMNSLKTEDTAVYYCAKDFEVREAHLSYFDYWGQGTLVTVSS
notes: as for B2
B4: Clone V278 (VHH)
VHH: QITLKESGGGLVQPGGSLRLSCAASGFTFSSYAMSWVRQAPGKGLEWVSAISGSGGSTYYADSVKGRFTISRDNSKNTLYLQMNSLRAEDTAVYYCAKERSRWGDNWFDPWGQGTLVTVSS
notes: as for B2
B5: Clone V420 (VHH)
VHH: QVQLVESGGGLVQPGGSLRLSCAASGFTFSSYWMSWVRQAPGKGLEWVANIKQDGSEKYYVDSVKGRFTISRDNAKNSLYLQMNSLRAEDTAVYYCARVNGGEYYFDYWGQGTLVTVSS
notes: as for B2
B6: Clone V282 (VHH)
VHH: B5 VHH with Q1E, N100R, G102S
notes: as for B2
B7: Clone V163 (VHH)
VHH: QVQLVESGGGLVKPGGSLRLSCAASGFTFSNAWMSWVRQAPGKGLEWVGRIKSKTDGGTTDYAAPVKGRFTISRDDSKNTLYLQMNSLKTEDTAVYYCARQGDSSSWYVEVYYFDYWGQGTLVTVSS
notes: as for B2
B8: Clone V312 (VHH)
VHH: EVQLVESGGGLVKPRGSLRLSCAASGFTFSNAWMSWVRQAPGKGLEWVGRIKSKTDGGTTDYAAPVKGRFTISRDDSKNTLYLQMNSLKTEDTAVYYCARTSRGRFLEWLLFDYWGQGTLVTVSS
notes: as for B2
B9: CAR containing Clone V70 VH-only antigen-binding domain (other)
chain: QVQLLESGGGLVQPGRSLRLSCTASGFTFGDYAMSWVRQAPGKGLEWVSSISGSGRSTDHADYVKGRFTISRDNSKNTVYLQMNRLRAEDTAVYYCAKVSNYEYYFDYWAQGTLVTVSS
notes: Chimeric antigen receptor expressed on primary human CD8+ T cells; tEGFR marker is split off by T2A; also called V70 CAR; not shown: Ig-derived hinge only spacer, human CD28-derived transmembrane domain, human 4-1BB-derived intracellular signaling domai
B10: Clone V397 (VHH)
VHH: QITLKESGGGLVQPGGSLRLSCAASGFTFSNAWMSWVRQAPGKGLEWVGRIKSKTDGGTTDYAAPLKGRFTISRDDSKNTLYLQMNSLKTEDTAVYYCARAKGLWFGESYYFDYWGQGTLVTVSS
notes: as for B2
B11: Clone 350 scFv (scFv)
scFv: EVQLVESGGGLVQPGRSLRLSCTASGFTFGDYAMSWVRQAPGKGLEWVSSISGSGRSTDHADYVKGRFTISRDNSKNTVYLQMNRLRAEDTAVYYCAKVSNYEYYFDYWAQGTLVTVSSQPVLTQPHSVSESPGKTVTISCTRSSGSIASNYVQWYQQRPGSAPTTVIYEDNQRPSGVPDRFSGSIDSSSNSASLTISGLKTEDEADYYCQSYDSSNHVFGTGTKLTVL
B12: CAR containing Clone 83B scFv (VH-VL) (other)
chain: QVQLVQSGAEVKKPGASVKVSCKASGYTFTSYYMHWVRQAPGQGLEWMGIINPNGGSTSYAQKFQGRVTMTRDTSTSTVYMELSSLRSEDTAVYYCARDSSYDAFDIWGQGTMVTVSSGGGGSGGGGSGGGGSAIQLTQSPSTLSASVGDRVTITCQASQDISNYLNWYQQKPGKAPKLLINDASYLETGVPSRFSGSGSGTDFTLTISSLQPEDIATYYCQQYESLPYTFGQGTKLEIK
notes: Chimeric antigen receptor expressed on primary human CD8+ T cells; tEGFR marker is split off by T2A; also called 83B CAR; not shown: Ig-derived hinge only spacer, human CD28-derived transmembrane domain, human 4-1BB-derived intracellular signaling domai
B13: Clone 83B scFv (scFv)
scFv: B12 chain
notes: De-glycosylation variant of clone 83 (S to N at VH position 53, Kabat)
B14: CAR containing Clone 48 scFv (VH-VL) (other)
chain: QVTLKESGGGLVKPGGSLRLSCAASGFTFSNAWMSWVRQAPGKGLEWVGRIKSKTDGGTTDYAAPVKGRFTISRDDSKNTLYLQMNSLKTEDTAVYYCARDFGRWSYYFDYWSQGTLVTVSSGGGGSGGGGSGGGGSQSVLTQPSSVSGTPGQRVTISCSGSSSNIGSNYVYWYQQLPGTAPKLLIYRNNQRPSGVPDRFSGSKSGTSASLAISGLRSEDEADYYCAAWDDSLSGVVFGGGTKLTVL
notes: Chimeric antigen receptor expressed on primary human CD8+ T cells; tEGFR marker is split off by T2A; also called 48 CAR; not shown: Ig-derived hinge only spacer, human CD28-derived transmembrane domain, human 4-1BB-derived intracellular signaling domai
B15: Clone 305 scFv (scFv)
scFv: EVQLVESGGGLVQPGRSLRLSCTASGFTFGDYAMSWVRQAPGKGLEWVSSISGSGRSTDHADYVKGRFTISRDNSKNTVYLQMNRLRAEDTAVYYCAKVSNYEYYFDYWAQGTLVTVSSQSVLTQPPSVSVAPGQTARITCGGNNIGSTSVHWFQQKPGQAPVLVVYDDSDRPSGIPERFSGSNSGNTATLTISRVEAGDEADYYCQVWDNDSDHRVFGGGTKLTVL
B16: Clone V331 (VHH)
VHH: QVQLQQWGAGLLKPSETLSLTCAVYGGSFSGYYWSWIRQPPGKGLEWIGKINHSGSTNYNPSLKSRVTISVDTSKNQFSLKLSSVTAADTAVYYCARGQIAAHVWGWFDPWGQGTLVTVSS
notes: as for B2
B17: Clone 366 scFv (scFv)
scFv: EVQLVESGGGLVQPGRSLRLSCTASGFTFGDYAMSWVRQAPGKGLEWVSSISGSGRSTDHADYVKGRFTISRDNSKNTVYLQMNRLRAEDTAVYYCAKVSNYEYYFDYWAQGTLVTVSSQSVLTQPPSVPGTPGQRVTITCSGSRFNIGSNTVNWYQQLPGTAPKLLIYSNNQRPSGVPDRFSGSKSGTSASLAISGLQSEDEADYYCAAWDDSLNGYVFGTGTKLTVL
notes: Printed without a linker
B18: CAR containing Clone 298 scFv (VH-VL) (other)
chain: EVQLVESGGGLVQPGRSLRLSCTASGFTFGDYAMSWVRQAPGKGLEWVSSISGSGRSTDHADYVKGRFTISRDNSKNTVYLQMNRLRAEDTAVYYCAKVSNYEYYFDYWAQGTLVTVSSGGGGSGGGGSGGGGSEIVLTQSPSVSVAPGQTARITCGGSNIGSESVNWYQWKSGQVPVLVVSDTTDRPSGIPGRFTGTRSGTTATLTISGVEAGDEADYHCQVWDDTGDHPVFGGGTKLTVL
notes: Chimeric antigen receptor expressed on primary human CD8+ T cells; tEGFR marker is split off by T2A; also called 298 CAR; not shown: Ig-derived hinge only spacer, human CD28-derived transmembrane domain, human 4-1BB-derived intracellular signaling domai
B19: Clone 298 scFv (scFv)
scFv: B18 chain

How the values were obtained:
[1] = target: T1, Mouse ROR1 (mouse, UniProt Q9Z139 30-937); assay: inferred from IFN-gamma release of CAR T cells on K562/mouse ROR1 cells
T1 construct: also called mROR1; K562/mouse ROR1
T1 sequence (Q9Z139 30-937): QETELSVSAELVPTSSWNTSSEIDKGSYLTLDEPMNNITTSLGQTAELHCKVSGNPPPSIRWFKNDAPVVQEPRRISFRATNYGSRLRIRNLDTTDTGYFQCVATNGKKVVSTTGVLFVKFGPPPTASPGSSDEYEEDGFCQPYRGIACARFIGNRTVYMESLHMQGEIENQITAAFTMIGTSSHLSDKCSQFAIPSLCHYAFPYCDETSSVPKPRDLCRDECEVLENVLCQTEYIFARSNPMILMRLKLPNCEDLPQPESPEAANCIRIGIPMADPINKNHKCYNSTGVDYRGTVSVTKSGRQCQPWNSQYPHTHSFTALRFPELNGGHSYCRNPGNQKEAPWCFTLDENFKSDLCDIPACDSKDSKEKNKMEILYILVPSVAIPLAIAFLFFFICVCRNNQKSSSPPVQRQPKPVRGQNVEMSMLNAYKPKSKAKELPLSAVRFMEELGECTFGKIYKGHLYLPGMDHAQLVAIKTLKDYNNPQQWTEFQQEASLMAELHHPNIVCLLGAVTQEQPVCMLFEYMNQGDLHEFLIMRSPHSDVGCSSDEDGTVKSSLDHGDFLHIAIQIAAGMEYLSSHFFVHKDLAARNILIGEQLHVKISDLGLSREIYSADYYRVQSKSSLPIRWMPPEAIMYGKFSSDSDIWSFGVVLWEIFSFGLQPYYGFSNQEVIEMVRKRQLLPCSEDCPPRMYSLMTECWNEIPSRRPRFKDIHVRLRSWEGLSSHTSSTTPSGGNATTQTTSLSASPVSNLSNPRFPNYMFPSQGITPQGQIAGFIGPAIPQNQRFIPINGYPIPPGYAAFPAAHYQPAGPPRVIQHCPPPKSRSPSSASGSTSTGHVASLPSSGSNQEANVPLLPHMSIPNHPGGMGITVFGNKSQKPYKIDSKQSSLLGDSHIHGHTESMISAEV
Method: Cytokine release was assessed following incubation of the CAR-expressing cells with either K562/human ROR1 (hROR1) or K562/mouse ROR1 (mROR1) antigen-expressing cells. Transduced CD8+ T cells were co-cultured with antigen-expressing cells at a single effector to target (E:T). The co-cultured cells were incubated for about 24 hours, and then supernatants were collected for measurement of IFN-γ using a cytokine immunoassay.

[2] = target: T2, Human ROR1 (receptor tyrosine kinase-like orphan receptor 1) (human, UniProt Q01973 30-937); assay: flow cytometry competition, competitor 2 nM Myc-R12 scFv on ROR1/K562 cells (n = 1)
T2 construct: also called hROR1; K562/ROR1
T2 sequence (Q01973 30-937): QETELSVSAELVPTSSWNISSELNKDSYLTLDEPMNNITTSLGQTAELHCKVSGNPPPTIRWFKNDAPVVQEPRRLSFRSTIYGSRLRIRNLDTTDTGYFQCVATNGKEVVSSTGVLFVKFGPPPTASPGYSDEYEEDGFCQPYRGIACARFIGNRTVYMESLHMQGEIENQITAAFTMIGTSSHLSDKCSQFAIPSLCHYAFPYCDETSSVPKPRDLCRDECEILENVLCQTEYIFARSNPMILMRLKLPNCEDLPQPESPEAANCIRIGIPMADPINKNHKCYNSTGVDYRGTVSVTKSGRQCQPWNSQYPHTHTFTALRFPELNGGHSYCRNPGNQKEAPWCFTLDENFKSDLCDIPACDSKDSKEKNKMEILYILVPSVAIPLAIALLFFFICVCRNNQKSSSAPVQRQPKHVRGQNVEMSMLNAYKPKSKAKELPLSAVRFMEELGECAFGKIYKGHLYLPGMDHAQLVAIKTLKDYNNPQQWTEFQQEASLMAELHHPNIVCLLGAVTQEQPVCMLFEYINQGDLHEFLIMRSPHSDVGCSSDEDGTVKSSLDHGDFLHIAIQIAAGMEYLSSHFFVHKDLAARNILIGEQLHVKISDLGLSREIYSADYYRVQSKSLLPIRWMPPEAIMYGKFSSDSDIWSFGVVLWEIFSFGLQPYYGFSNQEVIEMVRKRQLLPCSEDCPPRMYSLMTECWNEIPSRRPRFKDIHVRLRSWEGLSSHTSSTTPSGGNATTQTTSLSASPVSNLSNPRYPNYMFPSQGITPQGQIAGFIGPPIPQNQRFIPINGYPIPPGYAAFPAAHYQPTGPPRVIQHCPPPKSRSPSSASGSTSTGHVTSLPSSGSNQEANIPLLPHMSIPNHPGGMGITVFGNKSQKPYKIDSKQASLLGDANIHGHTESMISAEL
Method: (§1) Assays also were performed to assess competition of the clones with the reference antibody (R12 scFv), for binding to ROR1-expressing cells. VH clones were titrated against 2 nM Myc-R12 on ROR1/K562 cells and competition assessed with an anti-Myc-Alexa647 secondary antibody, and the half maximal inhibitory concentration (IC₅₀) determined for respective clones.

[3] = target: T2, Human ROR1 (receptor tyrosine …); assay: competition with Myc-R12 scFv on ROR1/K562 cells; predicted plateau relative to R12 scFv = 100%
Method: as §1
(§2) Additionally, percent (%) maximum (max) binding to ROR1-expressing cells and % max competition with the reference antibody (R12 scFv) were calculated. Percent max binding and competition values were calculated based on predicted plateaus (measured by Prism® using four parameter non-linear regression), relative to values for R12 scFv binding and inhibition, respectively, assigned as 100% in each study.

[4] = target: T2, Human ROR1 (receptor tyrosine …); assay: flow cytometry on ROR1-expressing K562 and CHOK1 cells (n = 1)
[5] = target: T2, Human ROR1 (receptor tyrosine …); assay: flow cytometry on ROR1-expressing cells; predicted plateau relative to R12 scFv = 100%
Method: as §2

[6] = target: T2, Human ROR1 (receptor tyrosine …); assay: flow cytometry on ROR1-expressing K562 and CHOK1 cells (n = 1); remark: listed apart in the source
[7] = target: T2, Human ROR1 (receptor tyrosine …); assay: flow cytometry competition, competitor R12 scFv on ROR1-expressing cells (n = 1)
Method: as §1
(§3) Assays also were performed to assess competition (measured as half maximal inhibitory concentration (IC₅₀)) of the clones with the R12 scFv reference antibody for binding to ROR1-expressing cells, as described in Example 1. Percent (%) max ROR1 and % max competition, as compared to the R12 scFv reference antibody, were determined as described in Example 1.

[8] = target: T2, Human ROR1 (receptor tyrosine …); assay: flow cytometry on ROR1-expressing cells; predicted plateau relative to R12 scFv = 100%; remark: listed apart in the source
Method: as §2, §3

[9] = target: T2, Human ROR1 (receptor tyrosine …); assay: competition with R12 scFv on ROR1-expressing cells; predicted plateau relative to R12 scFv = 100%
Method: as §2, §3

Row | IC50 [2] | % Max Competition [3] | EC50 [4] | % Max Binding [5] | also measured | Binder
1 | – | – | – | – | binding result [1]: binds | B1
2 | > 200 nM | – | – | – | – | B2
3 | > 200 nM | 76% | – | – | – | B3
4 | – | – | 31.5 nM | 22% | – | B4
5 | 71.5 nM | 58% | 8 nM | 74% | – | B5
6 | 94.3 nM | 48% | 13.1 nM | 64% | – | B6
7 | 154 nM | 58% | 92.9 nM | 122% | – | B7
8 | 5.6 nM | 19% | 23.7 nM | 29% | – | B8
9 | – | – | – | – | binding result [1]: binds | B9
10 | 25.2 nM | 18% | 49.7 nM | 18% | – | B10
11 | – | – | – | – | EC50 [6]: 22.9 nM; IC50 [7]: 49.1 nM; % Max Binding [8]: 137%; % Max Competition [9]: 80% | B11
12 | – | – | – | – | binding result [1]: binds | B12
13 | – | – | – | – | EC50 [6]: 6.4 nM; IC50 [7]: 15 nM; % Max Binding [8]: 140%; % Max Competition [9]: 103% | B13
14 | – | – | – | – | binding result [1]: binds | B14
15 | – | – | – | – | EC50 [6]: 5.1 nM; IC50 [7]: 62.5 nM; % Max Binding [8]: 86%; % Max Competition [9]: 97% | B15
16 | 32.4 nM | 31% | 18.8 nM | 70% | – | B16
17 | – | – | – | – | EC50 [6]: 10 nM; IC50 [7]: 53.9 nM; % Max Binding [8]: 104%; % Max Competition [9]: 71% | B17
18 | – | – | – | – | binding result [1]: binds | B18
19 | – | – | – | – | EC50 [6]: 5.9 nM; IC50 [7]: 41.3 nM; % Max Binding [8]: 96%; % Max Competition [9]: 88% | B19
